Data on one substance can be found in patent publication US7429385.

The assay addresses MOLT4 receptor (putative E2 receptor on human lymphoma T-cells, MOLT-4 cells) (human). Nature of the assay: cytofluorimetric binding assay on MOLT-4 cells.

In turn, “intracellularly produced truncated HCV E2 terminating at amino acid 715 (E2715), from CHO cell lysate (from UniProt P26664 384-715)” displayed a fold more efficient binding to MOLT-4 cells than secreted E2 of 30 fold.
